Test results as given in patent publication US20170015742A1 (published 2017).
Where a chain is given by its changes, count along the chain named. In names and notes the source's numbering stands.

What was measured:
[1] = biological target: T1, recombinant mouse VEGF-R2-Fc (R&D Systems cat#443-KD) (mouse, UniProt P35918 20-762); assay: competition ELISA: antibody on coated mVEGFR2-Fc against mVEGF164 (Example 1.25)
T1 construct: Bought reagent; also called mVEGFR2-Fc; mVEGF-R2; not shown: Fc part of the bought fusion protein

[2] = biological target: T2, recombinant human VEGF-R2-Fc (R&D Systems cat#357-KD) (human, UniProt P35968 20-764); assay: competition ELISA: antibody on coated hVEGFR2-Fc against biotinylated hVEGF165 (Example 1.23)
T2 construct: Bought reagent; also called hVEGFR2-Fc; hVEGF-R2 (KDR/Flk-1); not shown: Fc part of the bought fusion protein
Experimental: (§1) To identify molecules which could block the binding of VEGF-R2 (KDR/Flk-1) to hVEGF₁₆₅, a competition ELISA was performed. […] Plates were then washed four times with wash buffer (TBS, 0.05% Tween-20) and blocked with Superblock blocking buffer (Thermo Scientific, cat#37535). […] The samples were added to wells and incubated for 30 minutes at 25° C. with shaking. […] Following incubation, plates were washed four times with wash buffer. Streptavidin-polyHRP-40 (Fitzgerald cat#65r-s104phrp) was diluted in assay diluent (10% Superblock containing 0.05% surfactamps) and added to plates (50 μL) for 45 minutes at 25° C. with shaking. Plates were washed four times with wash buffer and developed with the addition of Enhanced K-blue TMB substrate (Neogen cat#308177). The reaction was stopped with 2N sulfuric acid (VWR, cat# BDH3500-1) and the absorbance was read at 450 nm-570 nm. A decrease in observed optical density indicates the test molecule is blocking the human VEGF-R2-Fc binding to hVEGF₁₆₅. Data was analyzed using Softmax Pro 4.8 software and IC₅₀ values calculated using a sigmoidal dose response (variable slope) fit in GraphPad Prism 5.

[3] = biological target: T3, recombinant human VEGF-R2-Fc (human, UniProt P35968 20-764); assay: competition ELISA: antibody added to coated hVEGF-R2-Fc, then biotin-hVEGF165
T3 construct: also called hVEGFR2-Fc; KDR/Flk-1; not shown: Fc part of the bought fusion protein
Experimental: as §1

[4] = biological target: T4, recombinant human PDGF-Rβ-Fc (R&D Systems #385-PR) (human, UniProt P09619 33-530); assay: direct ELISA on coated recombinant human PDGF-Rβ-Fc (Example 1.26)
T4 construct: Bought reagent; also called hPDGFRβ-Fc; huPDGF Rβ; not shown: Fc part of the bought fusion protein
Experimental: Plates were then washed four times with wash buffer (TBS, 0.05% Tween-20) and blocked with Superblock blocking buffer (Thermo Scientific, cat#37535). During the blocking step, supernatants, antibodies and benchmark compounds were diluted in assay diluent (10% Superblock containing 0.05% surfactamps) and an eight point titration of each sample molecule was performed. […] Following incubation, plates were washed four times with wash buffer. […] Plates were washed four times with wash buffer and developed with the addition of Enhanced K-blue TMB substrate (Neogen, cat#308177). The reaction was stopped with 2N sulfuric acid (VWR, cat# BDH3500-1) and the absorbance was read at 450 nm-570 nm. […] Data was analyzed using Softmax Pro 4.8 software and IC₅₀ values calculated using a sigmoidal dose response (variable slope) fit in GraphPad Prism 5.

[5] = biological target: T5, Rat PDGF-BB (rat, UniProt Q05028 74-182); assay: affinity KD as tabulated in Table 69; method not given
T5 construct: Homodimer of B chains

[6] = biological target: T6, Rabbit PDGF-BB (rabbit, UniProt Q05028 74-182 (rat entry)); assay: as above
T6 construct: also called rab PDGF

[7] = biological target: T7, Cynomolgus monkey VEGF-A (cynomolgus monkey, UniProt P15692 207-395 (human entry)); assay: as above
T7 construct: also called cyno VEGF

[8] = biological target: T8, Cynomolgus monkey PDGF-BB (cynomolgus monkey, UniProt P01127 82-190 (human entry), limits assumed); assay: as above
T8 construct: Homodimer of B chains; also called cyno PDGF; cynoPDGF-BB
T8 chain: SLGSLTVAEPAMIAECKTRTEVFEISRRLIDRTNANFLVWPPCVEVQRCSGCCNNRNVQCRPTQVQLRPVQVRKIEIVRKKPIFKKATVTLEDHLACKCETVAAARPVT

[9] = biological target: T9, Mouse PDGF-BB (mouse, UniProt P31240 82-190); assay: as above
T9 construct: Homodimer of B chains; also called mo PDGF; mPDGF-BB

[10] = biological target: T10, Recombinant human FcγRIIb, 6xHis-tagged (human, UniProt P31994 46-217, limits assumed); assay: Biacore SPR; His-tagged human FcγR captured on anti-6xHis antibody, DVD-Ig injected
T10 construct: Captured through its 6xHis tag; also called huFcRIIb
T10 sequence: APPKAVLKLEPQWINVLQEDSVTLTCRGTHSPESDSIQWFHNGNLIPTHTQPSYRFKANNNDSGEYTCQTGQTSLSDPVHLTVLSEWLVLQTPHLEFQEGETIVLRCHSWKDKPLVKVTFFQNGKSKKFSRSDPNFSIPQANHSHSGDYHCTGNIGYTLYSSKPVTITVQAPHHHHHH
Experimental: (§2) A CM5 chip (GE Healthcare, Pittsburgh, Pa.) with mouse anti-6×His antibodies (“6×His” disclosed as SEQ ID NO: 405) that were directly immobilized on the chip via amine coupling according to the GE Healthcare protocol to the density of 10000RU (all flow cells) was used for experiments. Human FcγRs were captured on flow cells 2, 3 and 4. Flow cell 1 was used as a reference surface. HBS-EP+ was used as the running buffer. […] The chip surfaces were regenerated with an injection of 10 mM glycine pH 1.5 at a flow rate of 100 μL/minute over all four flow cells after each cycle.

[11] = biological target: T11, Recombinant human FcγRIIa H131, 6xHis-tagged (human, UniProt P12318 36-218, limits assumed); assay: as above
T11 construct: Captured through its 6xHis tag
T11 sequence: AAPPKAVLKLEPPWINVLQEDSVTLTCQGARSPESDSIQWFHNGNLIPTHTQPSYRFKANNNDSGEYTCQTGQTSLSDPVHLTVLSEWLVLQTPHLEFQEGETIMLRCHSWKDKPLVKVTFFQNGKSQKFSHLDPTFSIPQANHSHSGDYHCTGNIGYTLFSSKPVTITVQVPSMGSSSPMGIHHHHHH
Experimental: as §2

[12] = biological target: T12, Recombinant human FcγRIIa R131, 6xHis-tagged (human, UniProt P12318 36-218, limits assumed); assay: as above
T12 construct: Captured through its 6xHis tag
T12 sequence: T11 sequence with H132R
Experimental: as §2

[13] = biological target: T13, Recombinant human FcγRIIIa F158, 6xHis-tagged (human, UniProt P08637 17-208, limits assumed); assay: as above
T13 construct: Captured through its 6xHis tag
Experimental: as §2

[14] = biological target: T14, Recombinant rat FcRn (rat, UniProt P13599 23-298, limits assumed); assay: Biacore SPR; DVD-Ig immobilised by amine coupling, recombinant FcRn injected; 1:1 binding fit
T14 construct: FcRn is normally a heterodimer with beta-2-microglobulin
T14 sequence (looked up) 1: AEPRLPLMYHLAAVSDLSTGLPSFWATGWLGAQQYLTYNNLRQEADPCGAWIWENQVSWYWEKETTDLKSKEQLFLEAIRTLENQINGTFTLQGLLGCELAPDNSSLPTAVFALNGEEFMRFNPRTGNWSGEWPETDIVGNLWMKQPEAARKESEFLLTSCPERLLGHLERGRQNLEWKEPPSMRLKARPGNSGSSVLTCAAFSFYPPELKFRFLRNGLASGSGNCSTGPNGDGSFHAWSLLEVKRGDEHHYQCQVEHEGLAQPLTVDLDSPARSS
T14 sequence (looked up) 2: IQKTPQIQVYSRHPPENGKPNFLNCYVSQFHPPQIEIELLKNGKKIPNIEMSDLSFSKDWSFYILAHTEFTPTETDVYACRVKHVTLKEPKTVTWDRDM
Experimental: Human, cynomolgus, mouse, rat and rabbit recombinant FcRns were injected over all the flow cells at a flow rate of 50 μL/minute for 1 minute at a concentrations range of from 2.7 to 6000 nM (three fold serial dilution), followed by a 2 minute dissociation time. The surfaces were regenerated with an injection of 10 mM HCl at 100 μL/minute for 2 seconds followed by an injection of HBS-EP+, pH 7.4, at a flow rate of 50 μL/minute for 30 seconds over all four flow cells. Samples were prepared and run in two running buffer systems, pH 6.0 MES-EP+, and pH […]. Recombinant human FcγRIIIa V158 and rat and mouse FcRn data were fitted to 1:1 kinetic model. Recombinant human FcγRIIa R131 and FcγRIIa H131, FcγRIIIa F158, and recombinant human, cynomolgus and rabbit FcRn binding data were fitted to a steady state affinity model. Biacore T200 Evaluation Software version 2.0 was used to fit all the data.

[15] = biological target: T15, Recombinant human FcγRIIIa V158, 6xHis-tagged (human, UniProt P08637 17-208, limits assumed); assay: Biacore SPR; His-tagged huFcγRIIIa 158V captured on anti-6xHis antibody, DVD-Ig injected; steady state fit
T15 construct: Captured through its 6xHis tag; also called huFcRIIIa 158V
Experimental: as §2
The binding of DVD-Ig molecules to FcRn from various species and the binding of DVD-Ig molecules to various FcγRs were characterized by Biacore using the method described in Example 1.2.

T1 sequence (P35918 20-762 limits assumed): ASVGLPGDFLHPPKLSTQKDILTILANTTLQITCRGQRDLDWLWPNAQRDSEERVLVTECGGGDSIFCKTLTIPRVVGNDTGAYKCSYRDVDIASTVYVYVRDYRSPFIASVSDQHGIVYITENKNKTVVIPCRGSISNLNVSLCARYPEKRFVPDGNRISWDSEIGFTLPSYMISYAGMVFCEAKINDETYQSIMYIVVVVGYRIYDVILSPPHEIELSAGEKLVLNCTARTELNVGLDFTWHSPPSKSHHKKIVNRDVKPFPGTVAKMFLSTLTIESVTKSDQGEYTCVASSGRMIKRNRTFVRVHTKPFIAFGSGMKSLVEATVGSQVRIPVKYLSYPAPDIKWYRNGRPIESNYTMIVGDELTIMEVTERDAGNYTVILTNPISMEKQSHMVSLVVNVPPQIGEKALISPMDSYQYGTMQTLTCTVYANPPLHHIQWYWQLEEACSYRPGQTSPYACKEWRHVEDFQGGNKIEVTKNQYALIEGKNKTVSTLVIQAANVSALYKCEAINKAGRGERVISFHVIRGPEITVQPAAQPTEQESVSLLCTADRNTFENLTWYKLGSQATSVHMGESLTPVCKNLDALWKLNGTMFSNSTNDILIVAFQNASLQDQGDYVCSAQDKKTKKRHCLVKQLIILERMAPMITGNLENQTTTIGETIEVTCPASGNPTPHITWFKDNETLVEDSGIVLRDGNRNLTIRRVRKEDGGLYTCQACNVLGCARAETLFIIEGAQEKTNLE
T13 sequence (P08637 other isoform, or with tags, fused parts or gaps limits assumed): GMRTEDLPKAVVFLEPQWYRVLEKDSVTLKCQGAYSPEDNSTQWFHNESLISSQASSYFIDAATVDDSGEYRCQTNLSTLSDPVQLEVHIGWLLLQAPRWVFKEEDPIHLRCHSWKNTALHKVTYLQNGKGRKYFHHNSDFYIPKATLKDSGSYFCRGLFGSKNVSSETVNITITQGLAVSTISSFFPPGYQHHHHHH
T3 sequence (P35968 20-764 limits assumed): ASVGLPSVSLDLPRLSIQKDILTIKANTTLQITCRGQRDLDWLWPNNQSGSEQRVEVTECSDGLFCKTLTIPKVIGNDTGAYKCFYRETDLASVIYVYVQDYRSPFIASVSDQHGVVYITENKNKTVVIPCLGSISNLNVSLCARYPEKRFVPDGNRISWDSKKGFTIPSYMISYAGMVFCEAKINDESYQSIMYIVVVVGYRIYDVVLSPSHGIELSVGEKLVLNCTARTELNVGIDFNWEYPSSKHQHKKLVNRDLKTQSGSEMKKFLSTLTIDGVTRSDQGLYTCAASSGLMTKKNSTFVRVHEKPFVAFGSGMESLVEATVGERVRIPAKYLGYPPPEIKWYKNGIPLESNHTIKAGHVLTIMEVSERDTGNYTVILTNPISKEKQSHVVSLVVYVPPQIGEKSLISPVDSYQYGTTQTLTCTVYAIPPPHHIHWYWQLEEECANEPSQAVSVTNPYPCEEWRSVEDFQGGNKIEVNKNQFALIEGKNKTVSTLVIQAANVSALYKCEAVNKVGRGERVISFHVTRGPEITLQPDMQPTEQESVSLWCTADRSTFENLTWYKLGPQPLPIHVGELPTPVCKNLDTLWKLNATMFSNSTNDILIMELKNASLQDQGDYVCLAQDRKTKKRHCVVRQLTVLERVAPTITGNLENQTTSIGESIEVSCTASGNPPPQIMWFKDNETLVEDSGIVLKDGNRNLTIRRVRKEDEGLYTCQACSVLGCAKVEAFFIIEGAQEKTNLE
T2 sequence (P35968 20-764 limits assumed): as above
T9 sequence (P31240 82-190 limits assumed): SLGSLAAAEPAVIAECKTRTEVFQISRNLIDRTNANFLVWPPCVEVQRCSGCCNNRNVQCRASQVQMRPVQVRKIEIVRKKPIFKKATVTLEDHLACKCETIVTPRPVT
T7 sequence (P15692 other isoform, or with tags, fused parts or gaps limits assumed): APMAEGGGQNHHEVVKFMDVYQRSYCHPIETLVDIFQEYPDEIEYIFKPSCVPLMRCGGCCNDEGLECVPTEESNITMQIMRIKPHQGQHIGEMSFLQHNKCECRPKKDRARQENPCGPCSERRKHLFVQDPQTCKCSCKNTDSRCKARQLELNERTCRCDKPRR
T4 sequence (P09619 33-530 limits assumed): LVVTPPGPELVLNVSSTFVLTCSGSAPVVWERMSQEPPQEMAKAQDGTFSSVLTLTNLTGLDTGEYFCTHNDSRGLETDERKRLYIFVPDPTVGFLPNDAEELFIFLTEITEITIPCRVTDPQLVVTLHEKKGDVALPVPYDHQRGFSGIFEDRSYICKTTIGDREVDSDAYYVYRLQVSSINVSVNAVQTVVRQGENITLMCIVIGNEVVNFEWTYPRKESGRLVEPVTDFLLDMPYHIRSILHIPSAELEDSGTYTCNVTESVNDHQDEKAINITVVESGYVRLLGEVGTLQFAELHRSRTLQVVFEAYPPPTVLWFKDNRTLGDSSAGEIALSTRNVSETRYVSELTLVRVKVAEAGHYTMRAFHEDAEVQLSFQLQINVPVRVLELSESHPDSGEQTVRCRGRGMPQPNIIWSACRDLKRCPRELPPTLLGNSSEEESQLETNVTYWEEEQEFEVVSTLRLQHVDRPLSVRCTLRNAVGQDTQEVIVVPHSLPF
T15 sequence (P08637 other isoform, or with tags, fused parts or gaps limits assumed): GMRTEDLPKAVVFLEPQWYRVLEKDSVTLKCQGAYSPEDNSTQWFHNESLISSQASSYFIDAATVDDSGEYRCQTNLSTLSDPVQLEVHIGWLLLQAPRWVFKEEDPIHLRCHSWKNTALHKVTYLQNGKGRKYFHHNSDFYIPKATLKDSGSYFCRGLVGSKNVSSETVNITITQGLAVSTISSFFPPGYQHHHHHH
T5 sequence (Q05028 74-182 limits assumed): as the sequence (P31240 82-190 limits assumed) above, with I83V, I102V counted along it
T6 sequence (Q05028 74-182 limits assumed): as the sequence (P31240 82-190 limits assumed) above, with I83V, I102V counted along it

B1: BCU-6B1-G6 (antibody, V domains shown)
VH: QIQLVQSGPELKKPGESVKISCKASGYTFTNYGMYWVKQAPGQALQFMGWINTETGQPTYADDFKGRFVFFLETSASTAYLQINNLKNEDMATYFCARLGNNYGIWFAYWGQGTLVTVSS
VL: DIQMTQSPASLSASLGETVTIECRASDDLYSTLAWYQQKPGDSPQLLIFDANRLAAGVPSRFSGSGSGTQYSLKINSLQSEDVASYFCQQYNKFPWTFGGGTKLELK
notes: Rat hybridoma anti-human VEGFR II monoclonal antibody, isotype IgG2a/κ
With B1 the IC50 [1] was 1.35 nM and the IC50 [2] was 4.85 nM.

B2: chBCU-6B1-G6 (antibody, V domains shown)
VH: B1 VH
VL: B1 VL
notes: also called chimeric BCU-6B1-G6
B2 was tested, and the IC50 [3] was 0.498 nM.

B3: BDE-8H6-F7 (antibody, V domains shown)
VH: EVQLVESGGGLVQPGSSLKLSCLASGFTFSNYNMYWIRQAPKKGLEWIALIFYDNNNKYYADSVKGRFTISRDNSKNTLYLEMNSLRSEDTAMYYCLRDSGPFSYWGQGTLVTVSS
VL: DIQMTQSPPSLSASLGDKVTINCQAGQNIKKYIAWYQQEPGKVPRLLIRYTSKLESDTPSRFSGSGSGRDYSFSISNVESEDIASYYCLQYDNLPWTFGGGTKLELK
notes: Rat hybridoma anti-human PDGFR-B monoclonal antibody
B3: binds [4].

B4: 9E10.1_GS_CL-33675 (PR-1610561), anti-VEGF-A/anti-PDGF-BB DVD-Ig, hu IgG1/k L234A L235A H435A (bispecific antibody)
heavy: EIQLVQSGSELKKPGASVKVSCKASGYTFTNYGMYWVKQAPGQGLEYMGWIDTETGRPTYADDFKGRFVFSLDTSVSTAYLQISSLKAEDTAVYFCARWSGDTTGIRGPWFAYWGQGTLVTVSSGGGGSGGGGSEVTLRESGPALVKPTQTLTLTCTFSGFSLSTYGMGVGWIRQPPGKALEWLANIWWDDDKYYNPSLKNRLTISKDTSKNQVVLTMTNMDPVDTATYYCARIESSGPKYSFDYWGQGTMVTVSSASTKGPSVFPLAPSSKSTSGGTAALGCLVKDYFPEPVTVSWNSGALTSGVHTFPAVLQSSGLYSLSSVVTVPSSSLGTQTYICNVNHKPSNTKVDKKVEPKSCDKTHTCPPCPAPEAAGGPSVFLFPPKPKDTLMISRTPEVTCVVVDVSHEDPEVKFNWYVDGVEVHNAKTKPREEQYNSTYRVVSVLTVLHQDWLNGKEYKCKVSNKALPAPIEKTISKAKGQPREPQVYTLPPSREEMTKNQVSLTCLVKGFYPSDIAVEWESNGQPENNYKTTPPVLDSDGSFFLYSKLTVDKSRWQQGNVFSCSVMHEALHNAYTQKSLSLSPGK
light: DIRMTQSPSSLSASVGDRVTIECLASEDIYSDLAWYQQKPGKSPKLLIYNANGLQNGVPSRFSGSGSGTDYSLTISSLQPEDVATYFCQQYNYFPGTFGQGTKLEIKGGSGGGGSGGEIVLTQSPGTLSLSPGERATLSCRASSGSIWYSFVSWYQQKPGQAPRLLIYADDQRASGIPDRFSGSGSGTDFTLTISRLEPEDFAVYYCQSYGINIDVVFGGGTKVEIKRTVAAPSVFIFPPSDEQLKSGTASVVCLLNNFYPREAKVQWKVDNALQSGNSQESVTEQDSKDSTYSLSSTLTLSKADYEKHKVYACEVTHQGLSSPVTKSFNRGEC
notes: also called 9E10.1-GS-33675; hu VEGF 9E10.1-GS-hu PDGF 33675 [hu IgG1/k]; LALA H435A
With B4 the Kd [5] was 0.003 nM, the Kd [6] was 0.003 nM and the Kd [7] was 0.065 nM. For the same binder, the Kd [8] was 0.0008 nM, the Kd [9] was 0.0003 nM and the binding result [10] was “no binding (tested: DVD-Ig 31.25 to 4000 nM)”. B4: no binding (tested: DVD-Ig 31.25 to 4000 nM) [11]; no binding (tested: DVD-Ig 31.25 to 4000 nM) [12]; no binding (tested: DVD-Ig 31.25 to 4000 nM) [13]. For the same binder, the binding result [14] was “no binding (tested: FcRn 2.7 to 6000 nM)” and the Kd [15] was 11000 nM.
